{
  "source": "patent US20250361297A1",
  "about": "“ANTI- SIGLEC-15 BINDING MOLECULES AND METHODS OF USE” (ADAPTAM THERAPEUTICS, S.L., priority 2024, published 2025)",
  "molecules": {"B1": {"name": "S15B1: parental mouse anti-Siglec-15 monoclonal antibody from hybridoma; VH SEQ ID NO: 18, VL SEQ ID NO: 19 (antibody, V domains shown)", "VH": "QVQLQQSGPELVKPGASVKISCKASGYAFSSSWMNWVKQRPGKGLEWIGRIYPGHGETNYNGKFKDKATVTADKSSSTTYMQLSSLTSEDSAVYFCARVDNSDPYYFDYWGQGTTLTVSS", "VL": "DIVLTQSPASLAVSLGQRATISCRASKSVSTSGYSYMHWYQQKPGQPPKLLIYLASNLESGVPARFSGSGSGTDFTLNIHPVEEEDAATYYCQHGRELPFTFGSGTKLEIK", "modifications": "Clone S15B1 VH; Clone S15B1 VL"}},
  "key": {"[1]": {"tested_on": "osteoclast differentiation", "experiment": "Osteoclast differentiation in vitro (TRACP 5b in culture medium)", "type": "cell-based", "conditions": "relative to baseline levels; culture medium at day 7 (FIG. 46)"}, "human Siglec-15 [2]": {"target": "T1, human Siglec-15 (Homo sapiens, UniProt Q6ZMC9)", "T1 construct": "expressed in transfected cells", "T1 sequence (Q6ZMC9 20-328)": "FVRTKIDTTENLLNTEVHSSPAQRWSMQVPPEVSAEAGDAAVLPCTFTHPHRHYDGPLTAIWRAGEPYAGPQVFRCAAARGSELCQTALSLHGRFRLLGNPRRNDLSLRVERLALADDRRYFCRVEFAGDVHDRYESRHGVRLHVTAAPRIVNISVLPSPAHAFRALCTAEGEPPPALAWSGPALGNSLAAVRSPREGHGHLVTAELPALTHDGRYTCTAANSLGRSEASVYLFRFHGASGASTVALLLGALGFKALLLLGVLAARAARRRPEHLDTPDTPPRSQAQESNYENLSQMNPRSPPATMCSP", "experiment": "Blocking of human Siglec-15 binding to Jurkat cells (flow cytometry)", "conditions": "flow cytometry (FIG. 22)", "experimental": "Blocking assay (Flow cytometry): Briefly, the anti-Siglec-15 antibodies of the disclosure or controls were diluted with human Siglec-15-human Fc protein (Sinobiologicals, 13976-H02H1), at 66.67 nM, and incubated at room temperature for 40 minutes. Then, Jurkat T cells were harvested from cell culture flasks, washed twice, and re-suspended in PBS containing 2% v/v Bovine serum albumin (FACS buffer). Then, 0.5×10^5 cells per well in 96 well-plates were incubated in 100 μL of the antibody/Siglec-15-human Fc mixtures for 40 minutes at 4° C. The plates were washed twice with FACS buffer, and then added and incubated for 40 minutes at 4° C. in dark with 100 μl/well Goat Anti-human IgG (H+L) (1:200 dilution in FACS buffer, Thermofisher). Cells were washed twice and re-suspended in FACS buffer. Fluorescence was measured in a flow cytometer. Data was analyzed using Flowjo and Graphpad Prism software."}, "human Siglec-15 [3]": {"target": "T1, human Siglec-15", "experiment": "Competitive flow cytometry assay with benchmark antibodies", "type": "binding", "experimental": "Epitope mapping assay by Flow cytometry: Competition with benchmark mouse IgG antibodies: 50,000 cells/well of THP-1 S15 OE were added to a round bottom 96 well plate, and centrifuged at 450×G for 5 minutes, and the supernatant was discarded. Human anti-siglec-15 IgG antibodies (starting at 198 nM, 3-fold serial dilution in staining buffer) were added to 100 μl of staining buffer and cells were resuspended with it and incubated for 40 minutes on ice. 100 μl of staining buffer were added to wells, centrifuged at 450× G for 5 minutes and the supernatants discarded. Benchmark mouse IgG antibodies were diluted at 33.3 nM and cells resuspended in 100 μl of the mix and incubated for 40 minutes on ice. Then, 100 μl of staining buffer were added to wells, centrifuged at 450×G for 5 minutes and the supernatants discarded. The secondary antibody anti-mouse IgG-Alexa647 was prepared at 1:200 dilution in 100 μl of staining buffer and added to each well, and cells were incubated for 40 minutes on ice. Cells were washed with 100 μl of staining buffer and centrifuged at 450×G for 5 minutes to discard the supernatant. Cells were resuspended in 150 μl of staining buffer and acquired in a flow cytometer."}, "[4]": {"tested_on": "recombinant cynomolgus Siglec-15 protein", "sequence (as listed by the source)": "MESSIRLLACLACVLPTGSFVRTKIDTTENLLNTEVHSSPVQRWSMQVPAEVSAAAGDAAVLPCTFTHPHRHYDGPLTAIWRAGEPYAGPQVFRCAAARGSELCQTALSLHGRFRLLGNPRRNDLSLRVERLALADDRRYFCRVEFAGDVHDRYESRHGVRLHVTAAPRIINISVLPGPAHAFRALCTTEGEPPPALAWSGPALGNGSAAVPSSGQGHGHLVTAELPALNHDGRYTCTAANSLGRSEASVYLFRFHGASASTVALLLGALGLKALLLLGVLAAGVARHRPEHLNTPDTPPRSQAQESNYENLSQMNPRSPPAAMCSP", "experiment": "ELISA binding to recombinant cynomolgus Siglec-15 protein", "set-up": "species or system cynomolgus monkey", "conditions": "ELISA (FIG. 11B)", "experimental": "Binding to human, cynomolgus and mouse Siglec-15 by ELISA: 96-well micro plates were coated with 50 μl of 2 μg/ml cynomolgus Siglec-15-his protein (Bonopusbio, CW70-50 ug), or 2 μg/ml mouse Siglec-15-his protein (Bonopusbio, CW71-50 ug), or 2 μg/ml human Siglec-15-his protein (Bonopusbio, CW37-50 ug) in carbonate/bicarbonate buffer (pH 9.6) overnight at 4° C. ELISA plates were washed once with wash buffer (PBS+0.1% v/v Tween-20, PBST) and then blocked with 200 μl/well blocking buffer (3% w/v non-fatty milk in PBST) 1 hour at room temperature. Plates were washed 3 times and incubated with […] serially diluted anti-Siglec-15 antibodies of the disclosure or controls (starting at 198 nM, 3-fold serial dilution in PBST with 1% w/v non-fatty milk) for 2 hours at room temperature. ELISA plates were washed 3 times again and incubated with Peroxidase Goat anti-Human IgG Fc Secondary Antibody (100 μl, 1:5000 dilution in PBST buffer, A18817 Thermo Scientific) for 1 hour at room temperature. After another 3 washes, plates were incubated with 100 μl/well TMB (N301, Thermo Scientific). The reaction was stopped 2 minutes later at room temperature with 50 μl of STOP solution (N600, Thermo Scientific), and the absorbance of each well was read on a NIVO microplate reader at 450. OD values were plotted against antibody concentration. Data was analyzed using Graphpad Prism software."}, "Siglec-15 positive cells": {"tested_on": "Siglec-15 positive cells", "experiment": "Internalization assay (Zenon pHrodo iFL Green)", "type": "cell-based", "experimental": "Internalization assay (Zhenon pHrodo): Sufficient volumes of 4× working solution of anti-Siglec-15 antibodies (10 nM) were prepared in cell culture medium for a total of 25 μL for each well of a 96-well plate. A working solution of Zenon™ pHrodo™ iFL IgG Labeling Reagent was prepared at 30 nM and 25 μL were added to each well. The mix was incubated for 5 minutes at room temperature to allow the labeling complexes to form. 5 mL of suspension cells at 2×10^6 cells/mL in cell culture medium were prepared and 50 μL of cells were added to each well of the 96-well plate containing the mix of anti-Siglec-15 antibody and the Zenon™ labeling reagent. Cells were incubated with the labeling complex for different timepoints (1-24 hours) under standard cell culture conditions. Fluorescence was analyzed by flow cytometry."}, "[5]": {"target": "T2, Siglec-15 on human macrophages (Homo sapiens, UniProt Q6ZMC9)", "T2 construct": "endogenous in cells; host or cells: human monocyte-derived macrophages from donor PBMCs", "T2 sequence (Q6ZMC9 20-328)": "T1 sequence (Q6ZMC9 20-328)", "experiment": "Flow cytometry binding to Siglec-15 positive human macrophages", "conditions": "compared to clone 5G12 (FIG. 3)", "experimental": "Post-polarization, the macrophages were harvested, washed using Flow Cytometry Staining Buffer (00-4222-26, Thermo Fisher Scientific), and subsequently incubated with fluorochrome-conjugated antibodies against Siglec-15, PD-L1, CD206, and CD163. This step was performed for 30 minutes at 4° C. in a dark environment to prevent photobleaching of the fluorochromes and to maintain the integrity of the antibodies.\nFollowing incubation, the cells underwent a second washing step and then resuspended in 200 μL of Flow Cytometry Staining Buffer containing DAPI (1:10,000) (D1306, Invitrogen). DAPI is a nuclear stain that facilitates the identification of viable cells and enables the exclusion of dead cells or debris during analysis. The stained cells were analyzed using a FACSymphony flow cytometer (BD Biosciences). The flow cytometry data were then processed and analyzed using FlowJo software (BD Biosciences)."}},
  "data": [
    {"molecule": "B1", "values": [
      {"measurement": "effect on osteoclast differentiation (TRACP 5b)", "setting": "[1]", "value": "did not significantly affect"},
      {"measurement": "blocking of binding of human Siglec-15 to Jurkat cells", "setting": "human Siglec-15 [2]", "value": "approximately 60%"},
      {"measurement": "inhibition of binding of 5G12 (benchmark 1)", "setting": "human Siglec-15 [3]; competitive flow cytometry (FIG. 18A)", "value": "outperformed A2A5C7E8"},
      {"measurement": "inhibition of binding of A2A5C7E8 (benchmark 2)", "setting": "human Siglec-15 [3]; competitive flow cytometry (FIG. 18B)", "value": "outperformed 5G12"},
      {"measurement": "extent of binding to cynomolgus Siglec-15 relative to 5G12", "setting": "[4]", "value": "higher extent than 5G12"},
      {"measurement": "percentage of cells that internalized the antibody", "setting": "Siglec-15 positive cells; Zenon pHrodo iFL Green label, 24 hours at 37° C.", "value": 100, "unit": "%"},
      {"measurement": "internalization, fold increase over isotype control", "setting": "Siglec-15 positive cells; kinetics over 1, 2, 4, 16, and 24 hours", "value": "approximately 6 fold"},
      {"measurement": "binding to Siglec-15 on human macrophages", "setting": "[5]", "value": "superior binding"}
    ]}
  ]
}
